Source: patent US20240218057A1 (ROCKEFELLER UNIVERSITY, published 2024)
Positions count from the first letter of the chain named.

B1: C922 (antibody, V domains shown)
VH: QVQLVESGGGLVKPGGSLRLSCAGSGFTFTDYYMAWIRQAPGKGLEWVSYISTSDRFINYADSVKGRFTISRDDAKNSLYLQMNSLRAEDTAVYYCARDGGGYDRFDHWGQGTLVTVSS
VL: DIQMTQSPSSLSASVGDRVTITCQASQDISNLLNWYQQKAGKAPKLLIYDASNLETGVPSRFSGSGSGTDFTFTISSLQPEDIATYYCLQYDNLPLTFGQGTKLEIK
B2: C923 (antibody, V domains shown)
VH: QVQLVESGGGLVKPGGSLRLSCAASGFTFSDYHMTWIRQAPGKGLEWVSYISNRSTYRNYADSVKGRFTISRDNAKNSLYLQMNSLRAEDTAVYYCARDGGAYDRFDYWGQGTLVTVSS
VL: B1 VL with S30K, N31K, L32F, A40P, F71L, L89Q
B3: C927 (antibody, V domains shown)
VH: QVQLVESGGGVVQPGRSLRLSCVASGFTFSYFDMHWVRQAPGKGLEWVALISHDGSTTFYGDSARGRFTISRDNSRNTLDLQMNSLRPEDTAVYFCAKPVDAAMFDFWGQGTLVTVS
VL: SYELTQPPSVSVAPGKTARITCGGNNIGSKSVHWYQQRPGQAPVLVIYYDSDRPSGIPERFSGSNSGNTATLTISRVEAGDEADFYCQVWDRSTNHLVVFGGGTQLTVL
B4: C934 (antibody, V domains shown)
VH: QVQLVQSGAEVKKPGASVKVSCKASGYTFTDYYIHWVRQAPGQGLEWMGWINPNSGGTNYAQKFQGRVTMTRDTSISTAYMDLSRLRSDDTAVYYCARDVIITMGRGVVFRMDVWGQGTTVTVSS
VL: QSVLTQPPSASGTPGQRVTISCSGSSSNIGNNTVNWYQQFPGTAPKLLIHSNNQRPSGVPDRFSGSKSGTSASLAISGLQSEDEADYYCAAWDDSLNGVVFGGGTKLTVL
B5: C935 (antibody, V domains shown)
VH: QVQLVESGGGVVQPGRSLRLSCAATGFTFSSYGMHWVRQAPGKGLEWVALIWYDGSNQYYVDSVKGRFTISRDNSKKTLYLQMNSLRVEDTAVYYCARDFSNSDMVTLSDAFDIWGQGTMVTVSS
VL: DIQLTQSPSFLSASVGDRVTIACRASQGISSYSSYLAWYQQKPGKAPKLLIYAASTLQSGVPSRFSGSGSGTEFTLTISSLQPEDFATYYCQQLNSYPLFTFGPGTKVDIK
B6: C920 (antibody, V domains shown)
VH: QLQLQESGPGLVKPSETLSLTCAVSGGSISNSPFYWGWIRQPPGKGLECIGSIYYSGSTYYNPSLKSRVTISVDTSKKQFSLKLSSVTAADTAVYYCARHFADGSGRVVDSWGQGILVTVSS
VL: EIVLTQSPATLSLSPGERATLSCRASQSVSSYLAWYQQKPGQAPSLLIYDVSNRATGIPARFSGSGSGTDFTLTISSLEPEDFAVYYCQQRINWPLYTFGQGTKLEIK
B7: C921 (antibody, V domains shown)
VH: B6 VH with G37A, S56T, K77T, S85R, S111Y, I116T
VL: B6 VL with S30T, S31T, S45R, N53S, I92S
B8: C909 (antibody, V domains shown)
VH: QVQLVQSGAEVKKPGASVKVSCRASGYTFPNYDLNWVRQATGQGLEWMGWMNPNSGNTGYAQKFQGRITMTRITSISTAYMELSSLRSEDTAVYYCARGRANWNSNFLLDSWGQGTLVTVSS
VL: QSALTQPASVSGSPGQSITISCTGTSSDVGGYNLVSWYQQYPGNVPKLMIYEDAKRPSGVSNRFSGSKSANTASLTISGLQAEDEADYYCCSYAGSSTRYVFGTGTKVTVL
B9: C924 (antibody, V domains shown)
VH: QVQLVESGGGVVQPGRSLRLSCAASGFTFSSYGMHWVRQAPGKGLEWVAVISDDGSNKYYADSVKGRFTISRDNSKNTLYLQMNSLRAEDTAVYYCAKSWWLSENWFDPWGQGTLVTVSS
VL: EIVMTQSPATLSVSPGERATLSCRASQSVSSNLAWYQQKPGQAPRLLIYGASTRATGIPARFSGTGSGTEFTLTISSLQSEDFAVYYCQQYNNWPLTFGGGTKVEIK
B10: C925 (antibody, V domains shown)
VH: B9 VH with S31N, M34L, I51T, S56N, N57R, N74D, S85N, A88T
VL: B9 VL with S30R, K39R, S52F, G64V, T65S, S76D
B11: C912 (antibody, V domains shown)
VH: QVQLVESGGGVVQPGRSLRLSCAASGFSFSTYTMHWVRQTPDKGLEWVAVISDDGKNKYYADSMKGRFTISRDNSKNTLYLQMSSLRPEDTAVYYCARDLENVMIEVALESWGQGTLVTVSS
VL: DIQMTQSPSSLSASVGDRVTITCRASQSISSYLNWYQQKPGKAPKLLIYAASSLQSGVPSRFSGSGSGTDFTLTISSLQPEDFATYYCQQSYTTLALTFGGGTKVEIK
B12: C914 (antibody, V domains shown)
VH: QVQLQESGPGLVKPSQTLSLTCTVSGGSITSGDYYWTWIRQPPGKGLEWIGYIYYSGNTYYNLSLRSRITISEDTSKNQFSLKLRSVTAADTAVYYCARAMITFGGVIVVLDYWGQGTLVTVSS
VL: QSALTQPPSASGSPGQSVTISCTGTSTDVGGYNFVSWYQQHPGKAPKLMIYEVSKRPSGVPDRFSGSKSGNTASLTVSGLQAEDEADYYCSSYAGSNILYVFGTGTKVTVL
B13: C915 (antibody, V domains shown)
VH: QVQLQESGPGLVKPSQTLSLTCTVSGGSISSGDYYWSWIRQPPGKGLEWIGYIYYSDSTYYNPSLRTRVTISVDTSKNQFSLKLTSVTAADTAVYYCARAMITFGGVIVLYDYWGQGTLVTVSS
VL: B12 VL with T27S, F34Y, S54T, D62A, N97I, I98L
B14: C911 (antibody, V domains shown)
VH: QVQLVESGGGVVQPGGSLRLSCAASAFTFSSYAMHWIRQSPGKGLEWVAVISSDGSSKFYADSVKGRFTISRDNSKNTLYLQMNSLSAEDTAVYYCARDLENVLIEVALQDWGQGTLVTVSS
VL: DIQMTQSPSSLSASVGDRVTITCRASQSINSYLNWYQQKPGKAPKLLIYAASSLHSGVPSRFSGSGSGTDFTLTISSLQPEDFATYYCQQSYTTLALTFGGGTKVEIK
B15: C926 (antibody, V domains shown)
VH: QVQLVESGGGVVQPGRSLRLSCAASGFGLITYSMHWVRQAPGKGLEWVGLISFDGNTTYYADSVRGRFTISRDNLANILYLQMNSLRPDDTALYYCARDKRGVIRGLLNFWGQGSLVTVSS
VL: DIVMTQSPDSLAVSLGERATINCKSSQSLLPSSNSNNYLAWYQQKSGQPPNLLIYWASTRESGVPDRFSGSGSETDFSLTISNLQAEDVAVYYCQQYYNTPHTFGGGTKVEI
B16: C931 (antibody, V domains shown)
VH: QVQLVESGGGVVQPGRSLRLSCAASGFSFSTYGMHWVRQAPGKGLEWVAVISFDGSQKYYGDSVKGRFTISRDNPKNTLDLQMNSLRAEDTAVYYCAKVVVRGVIISLYYGMDVWGQGTTVTVSS
VL: not shown
B17: C928 (antibody, V domains shown)
VH: QVQLVESGGGVVQPGRSLRLSCAASGFTFSFFDMHWVRQAPGKGLEWVADISYDGSNQYYGDSVKGRFTISRDNSKSTLYLQMNSLRAEDTAVYYCAKPVDTAMFDSWGQGTLVTVSS
VL: SYELTQPPSVSVAPGETARITCGGNNIGHKSVHWYQQQPGQAPVLVIYYDSERPSGIPERFSGSNSGNTATLTISRVEAGDEADYHCQVWDGGNDHLVIFGGGTKLTVL
B18: C932 (antibody, V domains shown)
VH: QVQLVESGGSVVQPGKSLRLSCAGSGFAFSTYGMHWVRQAPGKGLEWVAVISSDGGNKYYADSVKGRFTISRDNYENTLYLQMNSLGAEDTAVYYCAKVALRGVFISLYYGMDVWGQGTTVTVSS
VL: SYELTQPPSVSVTPGQTASITCSGDKLGDKYACWFLQKPGQSPLLVIYQDTKRPSGIPDRLSGSKSGNTATLTISGTQAMDEADYYCQTWDSSAVVFGGGTKLTV
B19: C913 (antibody, V domains shown)
VH: EVQLVESGGVVVQPGGSLRLSCAASGFTFDDYSMHWVRQVPGKGLEWIAVIFWDGTSTYYADSVKGRFTISRDNSKKSLYLQMNSLRSEDTALYYCAKDSEDCSSTSCYVDHWGQGTLVTVSS
VL: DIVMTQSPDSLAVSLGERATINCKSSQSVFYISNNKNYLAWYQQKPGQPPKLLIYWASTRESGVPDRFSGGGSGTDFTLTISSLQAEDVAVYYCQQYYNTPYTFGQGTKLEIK
B20: C918 (antibody, V domains shown)
VH: QVQLVESGGGLVKPGGSLRLSCTASGFTFSDYYMTWLRQAPGKGLEWVSYISSTSPYTSYADSVKGRFTISRDNARNSVYLQMNSLRAEDTAIYYCARVPPPQRLHPFDVWGQGTMVTVSS
VL: DIQMTQSPSTLSASVGDRVTITCRASQSISSWLAWYQQKPGKAPKLLIYQASSLESGVPSRFSGSGSGTDFTLTISSLQPDDFATYYCQQYFRYSWTFGQGTKVEI
B21: C916 (antibody, V domains shown)
VH: EVQLVESGGGLVQPGGSLRLSCAASGFTFSNYDMHWVRQATGRGLEWVSTIGTAGDTYYPGSVKGRFTISRENAKNSLYLQMNSLRAGDTALYYCARVRYDSSGYFWSLDYWGQGTLVTVSS
VL: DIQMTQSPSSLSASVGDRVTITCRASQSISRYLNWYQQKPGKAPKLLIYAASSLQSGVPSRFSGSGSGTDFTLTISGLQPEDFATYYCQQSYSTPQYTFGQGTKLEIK
B22: C917 (antibody, V domains shown)
VH: B21 VH with R43K, E46D, L92V, Y100F, S102T
VL: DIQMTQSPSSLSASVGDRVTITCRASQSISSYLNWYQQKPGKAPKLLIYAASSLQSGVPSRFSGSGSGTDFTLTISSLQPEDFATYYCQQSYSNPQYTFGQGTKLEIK
B23: C929 (antibody, V domains shown)
VH: EVQLVESGGGLIQPGGSLRLSCAASGFTVSSNYMTWVRQAPGKGLEWVSVIYSGGTTYYADSVKGRFTISRDNSKNTLYLQMNSLRAEDTAVYYCARDLVVWGMDVWGQGTTVTVSS
VL: DIQLTQSPSFLSASVGDRVTITCRASQGISSYLAWYQQKPGKAPKLLIYAASTLQSGVPSRFSGSGSGTEFTLTISSLQPEDFATYYCQLLNSYPYTFGQGTKLEIK
B24: C936 (antibody, V domains shown)
VH: B23 VH with T35S, T56S, Y58F, V100G, V101T, W102G, G103L, M104F, V106Y, T112L
VL: DIQLTQSPSFLSASVGDRVTITCRASQGISSYLAWYQQKPGKAPKLLIYAASTLQSGVPSRFSGSGSGTEFTLTISSLQPEDFATYYCQQLDSYPPGTFGPGTKVDIK
B25: C937 (antibody, V domains shown)
VH: EVQLVESGGGLIQPGGSLRLSCAASELTVSSNYMSWVRQAPGKGLEWVSVIYPGGSTFYADSVKGRFTISRDNSKNTLYLQMNSLRAEDTAVYYCARDLGTGLFDYWGQGTLVTVSS
VL: B24 VL with Y87F, Q90L, D92N, Y94N
B26: C930 (antibody, V domains shown)
VH: B23 VH with I12F, S21A, F27I, T35S, A40P, S53A, T56S, Y58F, F67L, M82I
VL: B23 VL with L90Q, S93T
B27: C910 (antibody, V domains shown)
VH: QVQLVQSGAAVKKPGASVKVSCKASGYTFTSYDINWVRQAPGQGLEWMGWMNPNSGNTGFAQRFQGRATLSRDTSITTAYMELTTLRSEDTAVYYCARGRANYNSKFLLDNWGQGTLVTVSS
VL: QSALTQPASVSGSPGQSITISCTGTSSDVGSYNLVSWYQQHPGTAPKLMIYEGSKRPSGVSDRFSGYKSGNTASLTISGLQADDEADYYCCSFAGSTTRYVFGTGTRVTVL

The binders below were run against T1, SARS-COV-2 RBD (SARS-COV-2, UniProt P0DTC2 319-539) (assay: ELISA, RBD coated on plate).
T1 construct: also called WT RBD

Row | Binder | EC50 [ng/mL]
1 | B1 | 2.42
2 | B2 | 1.95
3 | B3 | 3.77
4 | B4 | 0.95
5 | B5 | 2.86
6 | B6 | 2.35
7 | B7 | 3.91
8 | B8 | 3.24
9 | B9 | 2.5
10 | B10 | 2.26
11 | B11 | 2.45
12 | B12 | 1.59
13 | B13 | 3.49
14 | B14 | 2.36
15 | B15 | 4.72
16 | B16 | 2.57
17 | B17 | 4.14
18 | B18 | 3.57
19 | B19 | 2.58
20 | B20 | 1.78
21 | B21 | 1.97
22 | B22 | 1.05
23 | B23 | 2.07
24 | B24 | 1.56
25 | B25 | 0.97
26 | B26 | 1.24
27 | B27 | 2.47
